In patent publication US5326856A, “Bifunctional isothiocyanate derived thiocarbonyls as ligands for metal binding” (Cytogen Corporation, priority 1992, dated 1994):
Ends that are not written are not given here. chelating agent A = 3,5-di-(1-trimethylammoniumacetyl)-4-thiosemicarbazidobenzoic acid, dichloride salt

Legend:
[1] = system: activated platelets; test: Aggregometer assay; assay type: cell-based
[2] = system: clot; test: Gamma camera thrombus imaging in rabbits; assay type: in vivo, New Zealand White rabbits; conditions: FIG. 8
Protocol: (§1) The specificity of uptake of Tc-99m labeled peptide […]-chelating agent A conjugate into rabbit thrombi was determined by directly comparing tissue uptake and images obtained in animals with an induced thrombus to those receiving a sham operation without induced thrombus.
Two groups of 3 rabbits were used. All animals were subjected to surgery to expose the superficial jugular vein as described in detail below. In the first group of animals, the jugular veins were clamped off and a silk thread was inserted into the jugular veins. These veins also received an injection of 10 units of bovine thrombin in 0.1 ml isotonic saline directly into the vein. […]
The peptide-chelating agent conjugate prepared as in Section 9, supra, was radiolabeled with Tc-99m as follows: Tc-99m was eluted from a molybdenum generator and adjusted to 40 mCi/ml with isotonic saline. […] After this incubation period the material was drawn into an appropriately labelled 5 ml syringe and a sample was analyzed by instant thin layer chromatography (ITLC) to determine radiochemical purity as described in Section 9, supra. This material was acceptable for injection into rabbits only if the radiochemical purity was ≥95% and the amount of radioactivity available for injection was within 20% of that required by this protocol (e.g., 4.8-7.3 mCi). […]

[3] = system: clot; test: Biodistribution by dissection in rabbits with induced thrombus; assay type: in vivo, New Zealand White rabbits; conditions: for 99M Tc / % ID/G (percent of injected dose per gram of tissue) / TISS:BLD / TISS:MUSC: 4 h after injection
Protocol: as §1
Two groups of 3 rabbits were used. All animals were subjected to surgery to expose the superficial jugular vein as described in detail below. In the first group of animals, the jugular veins were clamped off and a silk thread was inserted into the jugular veins. These veins also received an injection of 10 units of bovine thrombin in 0.1 ml isotonic saline directly into the vein. The second (sham control) group of animals was subjected to the same surgical procedures as the experimental group except that no silk was inserted into the veins of these animals and the veins received an injection of 0.1 ml isotonic saline only. Due to logistical difficulties in handling six animals at one time, the experiment was conducted in three parts, each part consisting of one sham and one thrombus-induced animal done in parallel on each of 3 days. Specific pathogen-free New Zealand White rabbits (2-2.6 kg) were used.
The model system of Collen et al. (1983, J. Clin. Invest. 71:368-376) was used (with minor modifications described below) to induce experimental thrombi in rabbits. The animals were anesthetized by intramuscular injection of 40 mg/kg ketamine-HC1 and 4 mg/kg acepromazine maleate. Just prior to surgery, the animals received 10 mg/kg sodium pentobarbital, which was also administered as needed during the course of the surgery. The neck area was shaved and swabbed with disinfectant. The jugular vein was exposed by making about a 5 cm paramedial incision, the vein was freed from tissues over about a 4 cm distance (up to the main bifurcation of the facial vein) and the side branches of the jugular were ligated. A 1-inch segment was clamped off with hemostats and, in the experimental (group 1) animals, a silk thread was placed longitudinally inside the vein and was tied off at each end. No suture was placed in the veins of sham control (group 2) animals. Ten (10) units of bovine thrombin in 0.1 ml of isotonic saline (or saline alone in sham control animals) was injected into the clamped vein segment using a 27 gauge needle. Thirty minutes later, the animals were given an intravenous injection (in the contralateral marginal ear vein) of a mixture of 2-7 μCi of Tc-99m labelled peptide-chelating agent conjugate.
The peptide-chelating agent conjugate prepared as in Section 9, supra, was radiolabeled with Tc-99m as follows: Tc-99m was eluted from a molybdenum generator and adjusted to 40 mCi/ml with isotonic saline. Fifty (50) mCi of this preparation was transferred to a Glucoscan vial (Dupont, Billerica, MA) and mixed. Six (6) mCi of Tc-99m/glucoscan mixture was then added to a vial containing 50 μg of the peptide-chelating agent conjugate and incubated for 1 h at room temperature. After this incubation period the material was drawn into an appropriately labelled 5 ml syringe and a sample was analyzed by instant thin layer chromatography (ITLC) to determine radiochemical purity as described in Section 9, supra. This material was acceptable for injection into rabbits only if the radiochemical purity was ≥95% and the amount of radioactivity available for injection was within 20% of that required by this protocol (e.g., 4.8-7.3 mCi).
All animals were dissected 4 h (240 min) after injection. A 3 ml blood sample was drawn, after which the animals were euthanized with an i.v. injection of T-61 euthanasia solution (American Hoechst, Sommerville, N.J.). The vein segment was surgically removed and the thrombus therein (if any) was isolated from the vein. A segment of the contralateral vein was also removed and a sample of muscle was obtained from an area of the neck distal to the surgical field. […]

Substance: Chelating Agent A-NH-SYRGDVRGDF: chelating agent A coupled with SYRGDVRGDF-NH2 peptide ({chelating agent A}-SYRGDVRGDF-NH2)
- IC50 [1]: 19.3 µM
- clot-binding potency relative to the native peptide ([1]; relative to native peptide): full or even enhanced clot-binding potency

Substance: Tc-99m-labeled SYRGDVRGDF-chelating agent A conjugate: peptide-chelating agent conjugate prepared as in Section 9, radiolabeled with Tc-99m (SYRGDVRGDF-NH2; not fully specified (N-terminus); also: chelating agent A conjugate, site not given here, Tc-99m labelled (metal complex))
- localization to clot in gamma camera imaging ([2]; 2 hours and 4 hours): localization of Tc-99m-labeled SYRGDVRGDF-chelating agent A conjugate to a clot
- blood pool accumulation, area of the head ([2]; gamma camera image): blood pool accumulation of peptide-chelating agent A, which is non-specific
- 99M Tc ([3]; Blood): 318229
- % ID/G (percent of injected dose per gram of tissue) ([3]; Blood): 0.0399 % ID/G
- 99M Tc ([3]; Clot (Target)): 94319
- % ID/G (percent of injected dose per gram of tissue) ([3]; Clot (Target)): 0.3312 % ID/G
- TISS:BLD ([3]; Clot (Target)): 28.30
- TISS:MUSC ([3]; Clot (Target)): 27.83
- 99M Tc ([3]; Muscle): 22369
- % ID/G (percent of injected dose per gram of tissue) ([3]; Muscle): 0.0119 % ID/G
- 99M Tc ([3]; Vessel): 95629
- % ID/G (percent of injected dose per gram of tissue) ([3]; Vessel): 0.0870 % ID/G
- TISS:BLD ([3]; Vessel): 2.18
- TISS:MUSC ([3]; Vessel): 7.28
- clot % ID/G relative to blood ([3]; clot vs blood): 8 fold
- clot % ID/G relative to the blood vessel ([3]; clot vs blood vessel): 4 fold
- % ID/G for the clot ([3]; clot, percent of injected dose per gram of tissue): 0.33%

Substance: SYRGDVRGDF [reference compound]
- IC50 [1]: 28.8 µM
